These results are taken from article PMC2936782 (Cell, 2010).

As a reminder, the Kd is the equilibrium constant for the complex coming apart. Usually stoichiometry N stands for the number of molecules, sites or subunits per partner or assembly.

In one series the target is PlexinC1 (Homo sapiens) (UniProt O60486). Kind of series: Scatchard analysis. The settings on record: cited from earlier work.
Series [1] deals with PlexinC1-SemaPSI (Sema domain plus the first PSI domain) (human) (UniProt O60486). Nature of the series: ITC. On the technique in general: Isothermal titration calorimetry measures the heat released or taken up as one component is titrated into another.
The target of series [2] is Sema7A, extracellular segment, glycan-trimmed (for crystallization) (human) (UniProt O75326). Nature of the series: SEC. (SEC sorts molecules by how far they enter the pores of the column.)
Series [3] shares this target. Nature of the series: crystal structure.
The series “SEC + cross-linking” concerns the molecule itself. Kind of series: SEC + cross-linking.

For Sema7A (from UniProt O75326), the dissociation constant (Kd) in the series with PlexinC1 (Homo sapiens) is 2.1 nM.
In the case of “Sema7A, entire extracellular segment excluding the GPI anchor (from UniProt O75326 45-648) (ligand)”, in series [1], the dissociation constant Kd came out at 290 nM and the dH is -2 kcal/mol.
As to “Sema7A, extracellular segment, glycan-trimmed (for crystallization) (from UniProt O75326 45-648) (ligand)”, the stoichiometry N in series [2] and in series [3] was 2 each time.

B1: PlexinC1-ECD (entire extracellular segment) (receptor, human, UniProt O60486 35-944, looked up)
chain: ADEPVWRSEQAIGAIAASQEDGVFVASGSCLDQLDYSLEHSLSRLYRDQAGNCTEPVSLAPPARPRPGSSFSKLLLPYREGAAGLGGLLLTGWTFDRGACEVRPLGNLSRNSLRNGTEVVSCHPQGSTAGVVYRAGRNNRWYLAVAATYVLPEPETASRCNPAASDHDTAIALKDTEGRSLATQELGRLKLCEGAGSLHFVDAFLWNGSIYFPYYPYNYTSGAATGWPSMARIAQSTEVLFQGQASLDCGHGHPDGRRLLLSSSLVEALDVWAGVFSAAAGEGQERRSPTTTALCLFRMSEIQARAKRVSWDFKTAESHCKEGDQPERVQPIASSTLIHSDLTSVYGTVVMNRTVLFLGTGDGQLLKVILGENLTSNCPEVIYEIKEETPVFYKLVPDPVKNIYIYLTAGKEVRRIRVANCNKHKSCSECLTATDPHCGWCHSLQRCTFQGDCVHSENLENWLDISSGAKKCPKIQIIRSSKEKTTVTMVGSFSPRHSKCMVKNVDSSRELCQNKSQPNRTCTCSIPTRATYKDVSVVNVMFSFGSWNLSDRFNFTNCSSLKECPACVETGCAWCKSARRCIHPFTACDPSDYERNQEQCPVAVEKTSGGGRPKENKGNRTNQALQVFYIKSIEPQKVSTLGKSNVIVTGANFTRASNITMILKGTSTCDKDVIQVSHVLNDTHMKFSLPSSRKEMKDVCIQFDGGNCSSVGSLSYIALPHCSLIFPATTWISGGQNITMMGRNFDVIDNLIISHELKGNINVSEYCVATYCGFLAPSLKSSKVRTNVTVKLRVQDTYLDCGTLQYREDPRFTGYRVESEVDTELEVKIQKENDNFNISKKDIEITLFHGENGQLNCSFENITRNQDLTTILCKIKGIKTASTIANSSKKVRVKLGNLELYVEQESVPST
For B1, the binding result in “SEC + cross-linking” was “binds”.
